This note sets out measurements from patent US20060115482A1, “Modifications of histone proteins as indicators of cell proliferation and differentiation” (The Regents of the University of California, priority 2004, published 2006).

Assay [1] has as its target native nucleosomes purified from 0-6 h Drosophila embryos (H2B in nucleosomes) (Drosophila) (UniProt P02283).
In assay [2] the target is recombinant histone H2B (unphosphorylated) (Drosophila) (UniProt P02283).
Assay [3] shares this target. Particulars: scale: % of the activity determined for TFIID, TAF1 and CTK.

Some results are limits rather than exact numbers.

For the substance “TAF1 COOH-terminal kinase domain (CTK; amino acids 1496-2132) (from UniProt P51123) (enzyme)”, the turnover value for phosphorylation of H2B-S33 (in vitro kinase assay, scintillation counting) in assay [1] is 2.6 s⁻¹; in assay [2], 4.4 s⁻¹. Regarding “CTKΔATP (CTK polypeptide lacking the ATP binding motifs) (from UniProt P51123) (enzyme)”, the kinase activity (radiolabeled H2B cut from the gel, scintillation counting) in assay [3] is less than 0.1. Same read-out and setting: in the case of “CTKΔ1600 (CTK polypeptide lacking the S/T-kinase motif) (from UniProt P51123) (enzyme)” it was less than 0.1. On to “recombinant TAF1 (Flag(M2)-epitope tagged, immunopurified) (from UniProt P51123) (enzyme)”, for which the turnover value for phosphorylation of H2B-S33 (in vitro kinase assay, scintillation counting) in assay [1] and in assay [2] was 2.5 s⁻¹ throughout. With “CTK(D1538A) (from UniProt P51123) (enzyme)”, the kinase activity (radiolabeled H2B cut from the gel, scintillation counting) in assay [3] was less than 0.1. Turning to “TFIID (endogenous Drosophila melanogaster TFIID, immunopurified) (from UniProt P51123) (enzyme)”, the turnover value for phosphorylation of H2B-S33 (in vitro kinase assay, scintillation counting) amounted to 3.3 s⁻¹ in assay [1] and 2.6 s⁻¹ in assay [2].
